Test results from US8840891 (RSR, dated 2014).
Like-named read-outs stand apart in the source and are kept apart here. Each block holds one molecule with its values, some of them ahead of it.

Tests used:
[1] = target: wild type human TSHR (human) (UniProt P16473); test: cell-based or functional assay
[2] = target: TSHR with Arg255 mutated to Aspartic acid (human) (UniProt P16473); test: cell-based or functional assay
[3] = target: TSHR coated onto tubes (human) (UniProt P16473); test: TSHR coated tubes, competitor 125I-TSH
[4] = target: TSHR with Asp151 mutated to Arginine (human) (UniProt P16473); test: cell-based or functional assay
[5] = target: wild type human TSHR (human) (UniProt P16473); test: cell-based or functional assay; remark: listed apart in the source
[6] = target: TSHR coated on ELISA plate wells (RSR Ltd) (human) (UniProt P16473); test: ELISA on TSHR-coated wells, 5C9 IgG-biotin binding with HBD pool (no competitor)
[7] = target: wild type human TSHR (thyrotropin receptor) expressed on CHO cells (human) (UniProt P16473); test: cell-based or functional assay
[8] = target: wild type human TSHR (thyrotropin receptor) expressed on CHO cells (human) (UniProt P16473); test: cell-based or functional assay; remark: listed apart in the source
[9] = target: TSHR with Glu61 mutated to Alanine expressed on CHO cells (human) (UniProt P16473); test: cell-based or functional assay
[10] = target: TSHR coated onto tubes (TSHR coated tubes) (human) (UniProt P16473); test: TSHR coated tubes, in the presence of HBD pool (Tables 4a, 4b)
[11] = target: wild type human TSHR (thyrotropin receptor) expressed on CHO cells (human) (UniProt P16473); test: cell-based or functional assay; remark: listed apart in the source
[12] = target: TSHR with Phe130 mutated to Alanine expressed on CHO cells (human) (UniProt P16473); test: cell-based or functional assay
[13] = target: wild type human TSHR (thyrotropin receptor) expressed on CHO cells (human) (UniProt P16473); test: cell-based or functional assay; remark: listed apart in the source
[14] = target: TSHR with Glu178 mutated to Alanine expressed on CHO cells (human) (UniProt P16473); test: cell-based or functional assay
[15] = target: TSHR with Tyr206 mutated to Alanine expressed on CHO cells (human) (UniProt P16473); test: cell-based or functional assay
[16] = target: wild type human TSHR (thyrotropin receptor) expressed on CHO cells (human) (UniProt P16473); test: cell-based or functional assay; remark: listed apart in the source

Molecule: 5C9 IgG (antibody)
- cyclic AMP; 5C9 0.01 µg/mL + TSH (fmol/cell well) [1]: 17500
- cyclic AMP; 5C9 0.1 µg/mL + TSH (fmol/cell well) [1]: 6600
- cyclic AMP; 5C9 1.0 µg/mL + TSH (fmol/cell well) [1]: 3380
- cyclic AMP; 5C9 10 µg/mL + TSH (fmol/cell well) [1]: 1240
- cyclic AMP; 5C9 100 µg/mL + TSH (fmol/cell well) [1]: 1510
- cyclic AMP; 5C9 100 µg/mL only (fmol/cell well) [1]: 278
- Mutated/wild type (%); 5C9 0.01 µg/mL + TSH [2]: 89%
- Mutated/wild type (%); 5C9 0.1 µg/mL + TSH [2]: 85%
- Mutated/wild type (%); 5C9 1.0 µg/mL + TSH [2]: 57%
- Mutated/wild type (%); 5C9 10 µg/mL + TSH [2]: 59%
- Mutated/wild type (%); 5C9 100 µg/mL + TSH [2]: 94%
- Mutated/wild type (%); 5C9 100 µg/mL only [2]: 201%
- cyclic AMP; 5C9 0.01 µg/mL + TSH (fmol/cell well) [2]: 15700
- cyclic AMP; 5C9 0.1 µg/mL + TSH (fmol/cell well) [2]: 5580
- cyclic AMP; 5C9 1.0 µg/mL + TSH (fmol/cell well) [2]: 1930
- cyclic AMP; 5C9 10 µg/mL + TSH (fmol/cell well) [2]: 735
- cyclic AMP; 5C9 100 µg/mL + TSH (fmol/cell well) [2]: 1410
- cyclic AMP; 5C9 100 µg/mL only (fmol/cell well) [2]: 559
- % inhib of 125I-TSH binding at 0.01 µg/mL [3]: 2%
- % inhib of 125I-TSH binding at 0.1 µg/mL [3]: 8%
- % inhib of 125I-TSH binding at 1 µg/mL [3]: 21%
- % inhib of 125I-TSH binding at 10 µg/mL [3]: 30%
- % inhib of 125I-TSH binding at 100 µg/mL [3]: 50%
- Mutated/wild type (%); 5C9 0.01 µg/mL + TSH [4]: 148%
- Mutated/wild type (%); 5C9 0.1 µg/mL + TSH [4]: 158%
- Mutated/wild type (%); 5C9 1.0 µg/mL + TSH [4]: 94%
- Mutated/wild type (%); 5C9 10 µg/mL + TSH [4]: 132%
- Mutated/wild type (%); 5C9 100 µg/mL + TSH [4]: 148%
- Mutated/wild type (%); 5C9 100 µg/mL only [4]: 157%
- cyclic AMP; 5C9 0.01 µg/mL + TSH (fmol/cell well) [4]: 18300
- cyclic AMP; 5C9 0.1 µg/mL + TSH (fmol/cell well) [4]: 10600
- cyclic AMP; 5C9 1.0 µg/mL + TSH (fmol/cell well) [4]: 2590
- cyclic AMP; 5C9 10 µg/mL + TSH (fmol/cell well) [4]: 1610
- cyclic AMP; 5C9 100 µg/mL + TSH (fmol/cell well) [4]: 2330
- cyclic AMP; 5C9 100 µg/mL only (fmol/cell well) [4]: 409
- cyclic AMP; 5C9 0.01 µg/mL + TSH (fmol/cell well) [5]: 12400
- cyclic AMP; 5C9 0.1 µg/mL + TSH (fmol/cell well) [5]: 6690
- cyclic AMP; 5C9 1.0 µg/mL + TSH (fmol/cell well) [5]: 2750
- cyclic AMP; 5C9 10 µg/mL + TSH (fmol/cell well) [5]: 1220
- cyclic AMP; 5C9 100 µg/mL + TSH (fmol/cell well) [5]: 1570
- cyclic AMP; 5C9 100 µg/mL only (fmol/cell well) [5]: 260

- Abs 450 nm [6]: 2.42 Abs 450 nm
- Cyclic AMP produced; 5C9 0.01 µg/mL + TSH (fmol/cell well) [7]: 15400
- Cyclic AMP produced; 5C9 0.1 µg/mL + TSH (fmol/cell well) [7]: 4700
- Cyclic AMP produced; 5C9 1.0 µg/mL + TSH (fmol/cell well) [7]: 1180
- Cyclic AMP produced; 5C9 10 µg/mL + TSH (fmol/cell well) [7]: 984
- Cyclic AMP produced; 5C9 100 µg/mL + TSH (fmol/cell well) [7]: 602
- Cyclic AMP produced; 5C9 100 µg/mL only (fmol/cell well) [7]: 272
- Cyclic AMP produced; 5C9 0.01 µg/mL + TSH (fmol/cell well) [8]: 13800
- Cyclic AMP produced; 5C9 0.1 µg/mL + TSH (fmol/cell well) [8]: 2890
- Cyclic AMP produced; 5C9 1.0 µg/mL + TSH (fmol/cell well) [8]: 536
- Cyclic AMP produced; 5C9 10 µg/mL + TSH (fmol/cell well) [8]: 254
- Cyclic AMP produced; 5C9 100 µg/mL + TSH (fmol/cell well) [8]: 202
- Cyclic AMP produced; 5C9 100 µg/mL only (fmol/cell well) [8]: 218
- Cyclic AMP produced; 5C9 0.01 µg/mL + TSH (fmol/cell well) [9]: 18000
- Cyclic AMP produced; 5C9 0.1 µg/mL + TSH (fmol/cell well) [9]: 2110
- Cyclic AMP produced; 5C9 1.0 µg/mL + TSH (fmol/cell well) [9]: 766
- Cyclic AMP produced; 5C9 10 µg/mL + TSH (fmol/cell well) [9]: 346
- Cyclic AMP produced; 5C9 100 µg/mL + TSH (fmol/cell well) [9]: 328
- Cyclic AMP produced; 5C9 100 µg/mL only (fmol/cell well) [9]: 254
- Mutated/wild type (%); 5C9 0.01 µg/mL + TSH [9]: 131%
- Mutated/wild type (%); 5C9 0.1 µg/mL + TSH [9]: 73%
- Mutated/wild type (%); 5C9 1.0 µg/mL + TSH [9]: 143%
- Mutated/wild type (%); 5C9 10 µg/mL + TSH [9]: 136%
- Mutated/wild type (%); 5C9 100 µg/mL + TSH [9]: 162%
- Mutated/wild type (%); 5C9 100 µg/mL only [9]: 117%
- % of labelled protein bound [10]: 17%
- Cyclic AMP produced; 5C9 0.01 µg/mL + TSH (fmol/cell well) [11]: 15300
- Cyclic AMP produced; 5C9 0.1 µg/mL + TSH (fmol/cell well) [11]: 2710
- Cyclic AMP produced; 5C9 1.0 µg/mL + TSH (fmol/cell well) [11]: 398
- Cyclic AMP produced; 5C9 10 µg/mL + TSH (fmol/cell well) [11]: 151
- Cyclic AMP produced; 5C9 100 µg/mL + TSH (fmol/cell well) [11]: 240
- Cyclic AMP produced; 5C9 100 µg/mL only (fmol/cell well) [11]: 334
- Cyclic AMP produced; 5C9 0.01 µg/mL + TSH (fmol/cell well) [12]: 17400
- Cyclic AMP produced; 5C9 0.1 µg/mL + TSH (fmol/cell well) [12]: 9020
- Cyclic AMP produced; 5C9 1.0 µg/mL + TSH (fmol/cell well) [12]: 2240
- Cyclic AMP produced; 5C9 10 µg/mL + TSH (fmol/cell well) [12]: 1140
- Cyclic AMP produced; 5C9 100 µg/mL + TSH (fmol/cell well) [12]: 603
- Cyclic AMP produced; 5C9 100 µg/mL only (fmol/cell well) [12]: 446
- Mutated/wild type (%); 5C9 0.01 µg/mL + TSH [12]: 114%
- Mutated/wild type (%); 5C9 0.1 µg/mL + TSH [12]: 332%
- Mutated/wild type (%); 5C9 1.0 µg/mL + TSH [12]: 562%
- Mutated/wild type (%); 5C9 10 µg/mL + TSH [12]: 754%
- Mutated/wild type (%); 5C9 100 µg/mL + TSH [12]: 251%
- Mutated/wild type (%); 5C9 100 µg/mL only [12]: 134%
- Cyclic AMP produced; 5C9 0.01 µg/mL + TSH (fmol/cell well) [13]: 12600
- Cyclic AMP produced; 5C9 0.1 µg/mL + TSH (fmol/cell well) [13]: 4350
- Cyclic AMP produced; 5C9 1.0 µg/mL + TSH (fmol/cell well) [13]: 688
- Cyclic AMP produced; 5C9 10 µg/mL + TSH (fmol/cell well) [13]: 630
- Cyclic AMP produced; 5C9 100 µg/mL + TSH (fmol/cell well) [13]: 712
- Cyclic AMP produced; 5C9 100 µg/mL only (fmol/cell well) [13]: 196
- Cyclic AMP produced; 5C9 0.01 µg/mL + TSH (fmol/cell well) [14]: 8170
- Cyclic AMP produced; 5C9 0.1 µg/mL + TSH (fmol/cell well) [14]: 7310
- Cyclic AMP produced; 5C9 1.0 µg/mL + TSH (fmol/cell well) [14]: 3570
- Cyclic AMP produced; 5C9 10 µg/mL + TSH (fmol/cell well) [14]: 1900
- Cyclic AMP produced; 5C9 100 µg/mL + TSH (fmol/cell well) [14]: 894
- Cyclic AMP produced; 5C9 100 µg/mL only (fmol/cell well) [14]: 134
- Mutated/wild type (%); 5C9 0.01 µg/mL + TSH [14]: 65%
- Mutated/wild type (%); 5C9 0.1 µg/mL + TSH [14]: 168%
- Mutated/wild type (%); 5C9 1.0 µg/mL + TSH [14]: 519%
- Mutated/wild type (%); 5C9 10 µg/mL + TSH [14]: 302%
- Mutated/wild type (%); 5C9 100 µg/mL + TSH [14]: 126%
- Mutated/wild type (%); 5C9 100 µg/mL only [14]: 68%
- Cyclic AMP produced; 5C9 0.01 µg/mL + TSH (fmol/cell well) [15]: 18400
- Cyclic AMP produced; 5C9 0.1 µg/mL + TSH (fmol/cell well) [15]: 10800
- Cyclic AMP produced; 5C9 1.0 µg/mL + TSH (fmol/cell well) [15]: 3460
- Cyclic AMP produced; 5C9 10 µg/mL + TSH (fmol/cell well) [15]: 1560
- Cyclic AMP produced; 5C9 100 µg/mL + TSH (fmol/cell well) [15]: 506
- Cyclic AMP produced; 5C9 100 µg/mL only (fmol/cell well) [15]: 482
- Mutated/wild type (%); 5C9 0.01 µg/mL + TSH [15]: 114%
- Mutated/wild type (%); 5C9 0.1 µg/mL + TSH [15]: 174%
- Mutated/wild type (%); 5C9 1.0 µg/mL + TSH [15]: 265%
- Mutated/wild type (%); 5C9 10 µg/mL + TSH [15]: 395%
- Mutated/wild type (%); 5C9 100 µg/mL + TSH [15]: 173%
- Mutated/wild type (%); 5C9 100 µg/mL only [15]: 109%
- Cyclic AMP produced; 5C9 0.01 µg/mL + TSH (fmol/cell well) [16]: 16100
- Cyclic AMP produced; 5C9 0.1 µg/mL + TSH (fmol/cell well) [16]: 6220
- Cyclic AMP produced; 5C9 1.0 µg/mL + TSH (fmol/cell well) [16]: 1310
- Cyclic AMP produced; 5C9 10 µg/mL + TSH (fmol/cell well) [16]: 396
- Cyclic AMP produced; 5C9 100 µg/mL + TSH (fmol/cell well) [16]: 292
- Cyclic AMP produced; 5C9 100 µg/mL only (fmol/cell well) [16]: 444
B1: 5C9 IgG (human monoclonal autoantibody to the TSHR) (antibody, from another filing, V domains shown)
VH: EVQLVESGGGLIQPGGSLRLSCAASGFTVSSNYMSWVRQAPGKGLEWVSVTYSGGSTSYADSVKGRFTISRDNSKNTLYLQMNSLRAEDTAVYYCARGGRYCSSISCYARSGCDYWGQGTLVTVSS
VL: AIQMTQSPSSLSASVGDRVTITCRASQSISNYLNWYQQKPGKAPKLLIYAASSLQSGVPSRFSGSGSGTDFTLTISSLQPEDFATYYCQQSYSSPSTTFGQGTKLEIK
